Columns and labels:
Assay in all cases: purified protein
Assay type in all cases: biochemical, Sorangium cellulosum
Conditions in all cases: 50 mM Tris-HCl pH 8.0, 30 °C
purified protein [1] = substrate: CCCC(=O)Oc1ccc([N+](=O)[O-])cc1
purified protein [2] = substrate: CC(=O)Oc1ccc([N+](=O)[O-])cc1
purified protein [3] = substrate: CCCCCCCCCC(=O)Oc1ccc([N+](=O)[O-])cc1
purified protein [4] = substrate: CCCCCCCC(=O)Oc1ccc([N+](=O)[O-])cc1
purified protein [5] = substrate: CCCCCCCCCCCC(=O)Oc1ccc([N+](=O)[O-])cc1

B1: r-LipA (Sorangium cellulosum) (protein)
chain: MPADTFTFQADDGRELFVYRWLPDDGARGIFHIAHGMSEHAGRYARLAHALSAAGWAVYANDHRGHGRTARERGELGFFASQGGFQRVVRDLAALIAREQEAHPGLPVVLFGHSMGSSLVQEYLIERGGSIQGAVLSGSSGKPSPLVDAGRLVARAERRRLGERGKSQLLQSMSFDSFNKLFAPARTPFDWLSRDRAEVDGYIADPCCGFPATVSLWIDLLDAMVDIARPERQARIPKDLPVYVFSGSRDPVGGPLRSVTQMIEAYRAAGLRRVTPRIYPGGRHEMLNEINREEVVRDLLAWLDAEVKTEAAPARPARPSAGAAAG
notes: pET-22b(+) NdeI/HindIII, His-tag (C-terminal by vector and stop-less reverse primer), E. coli BL21(DE3), Ni-NTA; tryptic peptides GELGFFASQGGFQR, SVTQMIEAYR; GHSMG at 112-116, Ser114/Asp250/His284
B1 gave a Km (purified protein [1]) of 0.366 ± 0.211 mM, a kcat (purified protein [1]) of 13.6 ± 0.735 s⁻¹ and a kcat/Km (purified protein [1]) of 37170 ± 128 M⁻¹ s⁻¹. The Km (purified protein [2]) was 0.174 ± 0.006 mM, the kcat (purified protein [2]) was 29.2 ± 0.977 s⁻¹ and the kcat/Km (purified protein [2]) was 168000 ± 2100 M⁻¹ s⁻¹. It also gave a Km (purified protein [3]) of 1.664 ± 0.047 mM, a kcat (purified protein [3]) of 1.56 ± 0.036 s⁻¹ and a kcat/Km (purified protein [3]) of 940 ± 5 M⁻¹ s⁻¹. The Km (purified protein [4]) was 0.704 ± 0.026 mM, the kcat (purified protein [4]) was 3.29 ± 0.114 s⁻¹ and the kcat/Km (purified protein [4]) was 4677 ± 13 M⁻¹ s⁻¹. It also gave a Km (purified protein [5]) of 1.946 ± 0.059 mM, a kcat (purified protein [5]) of 1.21 ± 0.032 s⁻¹ and a kcat/Km (purified protein [5]) of 619 ± 2 M⁻¹ s⁻¹.
